Legend:
myelin basic protein = myelin basic protein (UniProt P02687)
rat prolactin = rat prolactin (UniProt P01237)
histone 2B = histone 2B (UniProt P62808)
histone 4 = histone 4 (UniProt P62803)

Sequence of myelin basic protein (P02687 whole entry): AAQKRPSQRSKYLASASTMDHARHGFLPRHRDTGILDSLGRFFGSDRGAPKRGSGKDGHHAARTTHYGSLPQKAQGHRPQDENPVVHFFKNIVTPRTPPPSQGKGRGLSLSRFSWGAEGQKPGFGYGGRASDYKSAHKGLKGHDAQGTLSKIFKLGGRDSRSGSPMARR
Sequence of rat prolactin (P01237 30-226): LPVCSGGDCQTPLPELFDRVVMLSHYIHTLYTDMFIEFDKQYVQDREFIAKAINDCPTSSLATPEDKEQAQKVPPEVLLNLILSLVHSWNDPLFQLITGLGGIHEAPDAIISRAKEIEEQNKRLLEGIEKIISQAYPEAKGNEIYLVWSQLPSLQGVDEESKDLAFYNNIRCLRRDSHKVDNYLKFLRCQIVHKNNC

active γ-PAK (mode of activation not stated for this experiment)
32P incorporated (AKRASEA): 18.3 pmol/unit
32P incorporated, % (AKRASAA = 100) (AKRASEA): 68%
Km (AKRASEA): 1420 µM
Km relative to AKRASAA (AKRASEA): Glutamate in the -1 or +1 position increased the Km by ˜3-fold
Vmax (AKRASEA): 2.22 pmol/min
Vmax relative to AKRASAA (AKRASEA): >2-fold increase in the Vmax when glutamate was in the -4 or +1 position
Vmax/Km (pmol min^-1 mM^-1) (AKRASEA): 1.6
Vmax/Km relative to AKRASAA (AKRASEA): 0.7-fold when glutamate was in the +1 position of AKRASEA
32P incorporated (myelin basic protein): 4.2 pmol
rel rate (%) (histone 2B = 100) (myelin basic protein): 37%
32P incorporated (KKRKSAA): 19.2 pmol/unit
32P incorporated, % (AKRASAA = 100) (KKRKSAA): 72%
Km (KKRKSAA): 610 µM
Vmax (KKRKSAA): 1.84 pmol/min
Vmax/Km (pmol min^-1 mM^-1) (KKRKSAA): 3
Km (AARASAA): 1880 µM
Vmax (AARASAA): 2.27 pmol/min
Vmax/Km (pmol min^-1 mM^-1) (AARASAA): 1.2
Km (AKRASPA): > 5000 µM
32P incorporated (AAAASKR): 0 pmol/unit
32P incorporated, % (AKRASAA = 100) (AAAASKR): 0%
32P incorporated (ARRASAA): 25 pmol/unit
32P incorporated, % (AKRASAA = 100) (ARRASAA): 93%
Km (ARRASAA): 650 µM
Vmax (ARRASAA): 2.11 pmol/min
Vmax/Km (pmol min^-1 mM^-1) (ARRASAA): 3.2
32P incorporated (AKRESAA): 47.2 pmol/unit
32P incorporated, % (AKRASAA = 100) (AKRESAA): 176%
Km (AKRESAA): 1350 µM
Km relative to AKRASAA (AKRESAA): Glutamate in the -1 or +1 position increased the Km by ˜3-fold
Vmax (AKRESAA): 6.62 pmol/min
Vmax relative to AKRASAA (AKRESAA): 6-fold higher than with AKRASAA
Vmax/Km (pmol min^-1 mM^-1) (AKRESAA): 4.9
Vmax/Km relative to AKRASAA (AKRESAA): an increase in the overall rate (Vmax/Km) of ˜2.2-fold
substrate or not (casein): Proteins that are not substrates for γ-PAK, such as casein, histone 1, cdc42, and rac1 (data not shown)
Km (AKRASGA): 2090 µM
Km relative to AKRASAA (AKRASGA): increased the Km by 4-fold and the Vmax by 3-fold
Vmax (AKRASGA): 3.49 pmol/min
Vmax relative to AKRASAA (AKRASGA): increased the Km by 4-fold and the Vmax by 3-fold
Vmax/Km (pmol min^-1 mM^-1) (AKRASGA): 1.7
32P incorporated (histone 1): 0 pmol
rel rate (%) (histone 2B = 100) (histone 1): 0%
32P incorporated (AKRPSAA): 1.2 pmol/unit
32P incorporated, % (AKRASAA = 100) (AKRPSAA): 5%
Km (AKRPSAA): > 5000 µM
substrate or not (cdc42): Proteins that are not substrates for γ-PAK, such as casein, histone 1, cdc42, and rac1 (data not shown)
32P incorporated (ARKASAA): 0.9 pmol/unit
32P incorporated, % (AKRASAA = 100) (ARKASAA): 3%
Km (ARKASAA): > 5000 µM
rate of phosphorylation relative to ARRASVA (ARAASVA): phosphorylated at a slower rate (40%) compared to ARRASVA (SEQ ID NO:17) (100%)
32P incorporated (RKKKSAA): 0.1 pmol/unit
32P incorporated, % (AKRASAA = 100) (RKKKSAA): 0%
rate of phosphorylation (reference) (ARRASVA): ARRASVA (SEQ ID NO:17) (100%)
substrate or not (rac1): Proteins that are not substrates for γ-PAK, such as casein, histone 1, cdc42, and rac1 (data not shown)
32P incorporated (PKRASAA): 40.5 pmol/unit
32P incorporated, % (AKRASAA = 100) (PKRASAA): 151%
Km (PKRASAA): 240 µM
Km relative to AKRASAA (PKRASAA): decreased the Km by ≈2-fold as compared to AKRASAA
Vmax (PKRASAA): 1.1 pmol/min
Vmax/Km (pmol min^-1 mM^-1) (PKRASAA): 4.6
phosphorylation rate (Vmax/Km) relative to AKRASAA (PKRASAA): an overall effect of a 2-fold increase in the phosphorylation rate
32P incorporated (rat prolactin): 1.8 pmol
rel rate (%) (histone 2B = 100) (rat prolactin): 17%
32P incorporated (EKRASAA): 30.2 pmol/unit
32P incorporated, % (AKRASAA = 100) (EKRASAA): 113%
Km (EKRASAA): 890 µM
Km relative to AKRASAA (EKRASAA): the Km was increased by 2-fold when glutamate was in the -4 position
Vmax (EKRASAA): 2.48 pmol/min
Vmax relative to AKRASAA (EKRASAA): >2-fold increase in the Vmax when glutamate was in the -4 or +1 position
Vmax/Km (pmol min^-1 mM^-1) (EKRASAA): 2.8
Vmax/Km relative to AKRASAA (EKRASAA): 1.3-fold with glutamate in the -4 position
Km (AKRGSAA): 3520 µM
Km relative to AKRASAA (AKRGSAA): increased the Km by 7-fold over that of the peptide containing alanine at that position
Vmax (AKRGSAA): 6.44 pmol/min
Vmax relative to AKRASAA (AKRGSAA): the Vmax was increased by 6-fold
Vmax/Km (pmol min^-1 mM^-1) (AKRGSAA): 1.8
Km (KKRASAA): 370 µM
Vmax (KKRASAA): 1.59 pmol/min
Vmax/Km (pmol min^-1 mM^-1) (KKRASAA): 4.3
Vmax/Km relative to AKRASAA (KKRASAA): ˜2 fold higher than that of AKRASAA
32P incorporated (histone 2B): 11 pmol
rel rate (%) (histone 2B = 100) (histone 2B): 100%
32P incorporated (histone 4): 8.3 pmol
rel rate (%) (histone 2B = 100) (histone 4): 74%
32P incorporated (protamine): 0 pmol
rel rate (%) (histone 2B = 100) (protamine): 0%
Km (AKRKSAA): 480 µM
Vmax (AKRKSAA): 2.34 pmol/min
Vmax/Km (pmol min^-1 mM^-1) (AKRKSAA): 4.8
Vmax/Km relative to AKRASAA (AKRKSAA): ˜2 fold higher than that of AKRASAA
Km (AKAASAA): > 5000 µM
32P incorporated (AKRASAA): 26.8 pmol/unit
32P incorporated, % (AKRASAA = 100) (AKRASAA): 100%
Km (AKRASAA): 460 µM
Vmax/Km (pmol min^-1 mM^-1) (AKRASAA): 2.2

Protein kinase C purified from bovine brain
32P incorporated (AKRASEA): 0.2 pmol/unit
32P incorporated, % (AKRASAA = 100) (AKRASEA): 6%
32P incorporated (KKRKSAA): 11.1 pmol/unit
32P incorporated, % (AKRASAA = 100) (KKRKSAA): 370%
32P incorporated (AAAASKR): 13.3 pmol/unit
32P incorporated, % (AKRASAA = 100) (AAAASKR): 403%
32P incorporated (ARRASAA): 18.8 pmol/unit
32P incorporated, % (AKRASAA = 100) (ARRASAA): 570%
32P incorporated (AKRESAA): 0.4 pmol/unit
32P incorporated, % (AKRASAA = 100) (AKRESAA): 12%
32P incorporated (AKRPSAA): 3.9 pmol/unit
32P incorporated, % (AKRASAA = 100) (AKRPSAA): 118%
32P incorporated (ARKASAA): 5.7 pmol/unit
32P incorporated, % (AKRASAA = 100) (ARKASAA): 173%
32P incorporated (RKKKSAA): 3.1 pmol/unit
32P incorporated, % (AKRASAA = 100) (RKKKSAA): 94%
32P incorporated (PKRASAA): 8.7 pmol/unit
32P incorporated, % (AKRASAA = 100) (PKRASAA): 264%
32P incorporated (EKRASAA): 0.1 pmol/unit
32P incorporated, % (AKRASAA = 100) (EKRASAA): 3%
32P incorporated (AKRASAA): 3 pmol/unit
32P incorporated, % (AKRASAA = 100) (AKRASAA): 100%

From patent publication US20030088057
